These are literature values, as cited in patent publication US10954506B2 (priority 2013, dated 2021).

The conditions of this data set: in vivo, iv.

B1: BChE: Butyrylcholinesterase, natural stoichiometric bioscavenger found as soluble protein in human plasma (protein, UniProt P06276 29-602, looked up)
Cholinesterase: EDDIIIATKNGKVRGMNLTVFGGTVTAFLGIPYAQPPLGRLRFKKPQSLTKWSDIWNATKYANSCCQNIDQSFPGFHGSEMWNPNTDLSEDCLYLNVWIPAPKPKNATVLIWIYGGGFQTGTSSLHVYDGKFLARVERVIVVSMNYRVGALGFLALPGNPEAPGNMGLFDQQLALQWVQKNIAAFGGNPKSVTLFGESAGAASVSLHLLSPGSHSLFTRAILQSGSFNAPWAVTSLYEARNRTLNLAKLTGCSRENETEIIKCLRNKDPQEILLNEAFVVPYGTPLSVNFGPTVDGDFLTDMPDILLELGQFKKTQILVGVNKDEGTAFLVYGAPGFSKDNNSIITRKEFQEGLKIFFPGVSEFGKESILFHYTDWVDDQRPENYREALGDVVGDYNFICPALEFTKKFSEWGNNAFFYYFEHRSSKLPWPEWMGVMHGYEIEFVFGLPLERRDNYTKAEEILSRSIVKRWANFAKYGNPNETQNNSTSWPVFKSTEQKYLTLNTESTRIMTKLRAQQCRFWTSFFPKVLEMTGNIDEAEWEWKAGFHRWNNYMMDWKNQFNDYTSKKESCVGL
B1: the effective dose result was “about 3 mg/kg”.
